We go through 1 molecule from patent US9487580.

This test deals with T1, recombinant human IL-23 (p19/p40 heterodimer) (human, UniProt Q9NPF7).
T1 chain 1: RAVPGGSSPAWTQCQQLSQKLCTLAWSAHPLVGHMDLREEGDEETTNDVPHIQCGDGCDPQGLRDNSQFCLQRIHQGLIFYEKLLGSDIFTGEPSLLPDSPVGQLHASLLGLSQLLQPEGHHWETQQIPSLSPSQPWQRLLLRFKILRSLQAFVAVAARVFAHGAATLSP
T1 chain 2: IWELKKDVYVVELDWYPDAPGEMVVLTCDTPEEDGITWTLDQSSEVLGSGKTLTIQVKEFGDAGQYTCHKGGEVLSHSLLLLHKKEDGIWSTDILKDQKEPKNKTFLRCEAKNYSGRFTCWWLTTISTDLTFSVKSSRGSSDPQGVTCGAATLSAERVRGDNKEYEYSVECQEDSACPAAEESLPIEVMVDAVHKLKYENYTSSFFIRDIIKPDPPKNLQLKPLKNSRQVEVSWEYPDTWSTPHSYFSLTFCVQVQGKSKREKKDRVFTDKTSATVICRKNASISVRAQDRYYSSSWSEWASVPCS
Briefly: KinExA. (Kinetic exclusion samples the free partner from a solution-phase mixture.)

B1: Antibody B (antibody, V domains shown)
VH: QVQLQESGPGLVKPSQTLSLTCTVSGGSISSGGYYWSWIRQHPGKGLEWIGHIHYSGNTYYNPSLKSRVTISVDTSKNQFSLKLSSVTAADTAVYYCARNRGFYYGMDVWGQGTTVTVSS
VL: DIQMTQSPSSVSASVGDRVTITCRASQVISSWLAWYQQKPGKAPSLLIYAASSLQSGVPSRFSGSVSGTDFTLTISSLQPEDFATYYCQQANSFPFTFGPGTKVDFK
With B1, the Kd (usually the concentration at which binding is half-saturated) amounted to 3.99 pM.
